Test results: the supplement of paper PMC9112550, “Optimization of the antimicrobial peptide Bac7 by deep mutational scanning” (BMC Biology, 2022)

Test system: Escherichia coli TOP10
Experiment: shrunken log2 fold change of peptide-encoding DNA abundance (4.5 h post-induction vs induction); higher = less antimicrobial activity (less host growth inhibition)
Settings: time post-induction: 4.5 h; library: site-saturation at positions 5, 18, 19, 20
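Further: peptides expressed intracellularly from a pBAD plasmid library in pooled LB shake-flask culture, induced with 0.3% L-arabinose, DNA abundance read by NGS, three biological replicates, DESeq2 with apeglm shrinkage.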

Sequence	shrunken log2 fold change
RRIRNRPPRLPRPRPRPNQSPRP	-0.157
RRIRSRPPRLPRPRPRPDCWPRP	0.362
RRIRNRPPRLPRPRPRPVDKPRP	0.0215
RRIRCRPPRLPRPRPRPEPCPRP	-0.0257
RRIRERPPRLPRPRPRPMRQPRP	0.575
RRIRERPPRLPRPRPRPRYLPRP	-0.452
RRIRMRPPRLPRPRPRPRTLPRP	0.28
RRIRVRPPRLPRPRPRPHESPRP	0.22
RRIRHRPPRLPRPRPRPPKHPRP	0.2
RRIRCRPPRLPRPRPRPTIKPRP	-0.364
RRIRQRPPRLPRPRPRPCANPRP	0.00875
RRIRDRPPRLPRPRPRPEINPRP	0.648
RRIRKRPPRLPRPRPRPHTKPRP	-0.0306
RRIRGRPPRLPRPRPRPYEIPRP	-0.132
RRIRTRPPRLPRPRPRPVYEPRP	0.00717
RRIRWRPPRLPRPRPRPRKKPRP	0.408
RRIRTRPPRLPRPRPRPCFAPRP	0.083
RRIRCRPPRLPRPRPRPFCAPRP	-0.00432
RRIRNRPPRLPRPRPRPKPDPRP	0.355
RRIRSRPPRLPRPRPRPLPNPRP	-0.215
RRIRIRPPRLPRPRPRPIMAPRP	-0.286
RRIRARPPRLPRPRPRPLWFPRP	0.145
RRIRARPPRLPRPRPRPNVDPRP	0.0662
RRIRLRPPRLPRPRPRPQHMPRP	-0.767
RRIRHRPPRLPRPRPRPRNRPRP	0.672

Sequence	shrunken log2 fold change
RRIRKRPPRLPRPRPRPNTPPRP	0.221
RRIRNRPPRLPRPRPRPYQNPRP	0.0156
RRIRRRPPRLPRPRPRPHRFPRP	-0.0954
RRIRVRPPRLPRPRPRPFEKPRP	-0.00236
RRIRLRPPRLPRPRPRPCGQPRP	-0.0417
RRIRSRPPRLPRPRPRPQWDPRP	-0.235
RRIRWRPPRLPRPRPRPNYDPRP	-0.24
RRIRQRPPRLPRPRPRPECIPRP	-0.269
RRIRARPPRLPRPRPRPRTMPRP	0.403
RRIRNRPPRLPRPRPRPPGPPRP	0.419
RRIRQRPPRLPRPRPRPLNHPRP	0.133
RRIRQRPPRLPRPRPRPHMAPRP	-0.0694
RRIRTRPPRLPRPRPRPLFSPRP	-0.717
RRIRRRPPRLPRPRPRPNEIPRP	-0.0559
RRIRARPPRLPRPRPRPFPSPRP	0.131
RRIRVRPPRLPRPRPRPPKHPRP	0.0761
RRIRNRPPRLPRPRPRPEDTPRP	-0.0307
RRIRKRPPRLPRPRPRPIPVPRP	-0.193
RRIRCRPPRLPRPRPRPCNWPRP	-0.141
RRIRLRPPRLPRPRPRPWVWPRP	-0.199
RRIRNRPPRLPRPRPRPCDAPRP	-0.195
RRIRHRPPRLPRPRPRPWSHPRP	0.0143
RRIRNRPPRLPRPRPRPKDGPRP	-0.00992
RRIRRRPPRLPRPRPRPFGTPRP	0.0468
RRIRKRPPRLPRPRPRPMWRPRP	0.481

Sequence	shrunken log2 fold change
RRIRVRPPRLPRPRPRPSSIPRP	-0.128
RRIRLRPPRLPRPRPRPAKPPRP	1.22
RRIRLRPPRLPRPRPRPSMFPRP	-0.498
RRIRHRPPRLPRPRPRPGSFPRP	-0.176
RRIRFRPPRLPRPRPRPRAIPRP	0.0543
RRIRCRPPRLPRPRPRPFSVPRP	-0.236
RRIRIRPPRLPRPRPRPVGGPRP	0.0792
RRIRIRPPRLPRPRPRPRTEPRP	0.0225
RRIRARPPRLPRPRPRPSRFPRP	0.125
RRIRRRPPRLPRPRPRPEINPRP	-0.0385
RRIRQRPPRLPRPRPRPIHQPRP	-0.15
RRIRRRPPRLPRPRPRPIYAPRP	3.39
RRIRQRPPRLPRPRPRPSTYPRP	-0.884
RRIRQRPPRLPRPRPRPCAFPRP	-0.254
RRIRQRPPRLPRPRPRPAAHPRP	0.179
RRIRCRPPRLPRPRPRPNQNPRP	-0.437
RRIRFRPPRLPRPRPRPRDAPRP	0.541
RRIRDRPPRLPRPRPRPGWIPRP	0.19
RRIRIRPPRLPRPRPRPICCPRP	-0.107
RRIRVRPPRLPRPRPRPAEAPRP	0.729
RRIRDRPPRLPRPRPRPTSYPRP	-0.189
RRIRPRPPRLPRPRPRPPWDPRP	0.312
RRIRRRPPRLPRPRPRPTSPPRP	0.225
RRIRWRPPRLPRPRPRPYPGPRP	-0.0967
RRIRYRPPRLPRPRPRPRTPPRP	-0.149

Sequence	shrunken log2 fold change
RRIRGRPPRLPRPRPRPCMNPRP	0.104
RRIRIRPPRLPRPRPRPVCGPRP	-0.0405
RRIRKRPPRLPRPRPRPYYGPRP	-0.101
RRIRHRPPRLPRPRPRPFWPPRP	0.131
RRIRTRPPRLPRPRPRPQMSPRP	0.056
RRIRVRPPRLPRPRPRPNFGPRP	-0.098
RRIRTRPPRLPRPRPRPTAPPRP	0.159
RRIRCRPPRLPRPRPRPGKTPRP	0.102
RRIRARPPRLPRPRPRPENLPRP	0.0156
RRIRERPPRLPRPRPRPIWEPRP	0.0512
RRIRERPPRLPRPRPRPCFDPRP	-0.144
RRIRKRPPRLPRPRPRPPCIPRP	-0.141
RRIRKRPPRLPRPRPRPMYTPRP	-0.0983
RRIRPRPPRLPRPRPRPMMRPRP	0.224
RRIRPRPPRLPRPRPRPFPIPRP	-0.371
RRIRERPPRLPRPRPRPMKCPRP	0.00911
RRIRMRPPRLPRPRPRPLHAPRP	1.29
RRIRQRPPRLPRPRPRPSCAPRP	-0.0664
RRIRPRPPRLPRPRPRPYEHPRP	-0.408
RRIRRRPPRLPRPRPRPNYKPRP	-0.232
RRIRERPPRLPRPRPRPRYPPRP	0.00273
RRIRDRPPRLPRPRPRPAYFPRP	0.128
RRIRERPPRLPRPRPRPDLLPRP	-0.183
RRIRNRPPRLPRPRPRPCIPPRP	-0.0387
RRIRIRPPRLPRPRPRPLVTPRP	-0.105

Sequence	shrunken log2 fold change
RRIRNRPPRLPRPRPRPPRHPRP	0.271
RRIRLRPPRLPRPRPRPGFQPRP	-0.0314
RRIRMRPPRLPRPRPRPNKFPRP	0.0721
RRIRKRPPRLPRPRPRPTVGPRP	0.197
RRIRTRPPRLPRPRPRPDNHPRP	-1.07
RRIRSRPPRLPRPRPRPKQSPRP	0.328
RRIRPRPPRLPRPRPRPWVFPRP	0.0691
RRIRDRPPRLPRPRPRPCKQPRP	-0.00787
RRIRRRPPRLPRPRPRPHGFPRP	0.114
RRIRGRPPRLPRPRPRPWAAPRP	0.539
RRIRMRPPRLPRPRPRPGKFPRP	0.0419
RRIRMRPPRLPRPRPRPQNDPRP	-0.179
RRIRVRPPRLPRPRPRPQFCPRP	-0.17
RRIRARPPRLPRPRPRPTTKPRP	0.541
RRIRLRPPRLPRPRPRPVHNPRP	-0.281
RRIRVRPPRLPRPRPRPFFTPRP	0.00087
RRIRSRPPRLPRPRPRPSDRPRP	-0.254
RRIRARPPRLPRPRPRPSLHPRP	0.162
RRIRVRPPRLPRPRPRPALCPRP	0.555
RRIRRRPPRLPRPRPRPTVIPRP	-0.168
RRIRVRPPRLPRPRPRPELMPRP	-0.0669
RRIRKRPPRLPRPRPRPNNSPRP	-0.371
RRIRGRPPRLPRPRPRPIIFPRP	0.437
RRIRFRPPRLPRPRPRPSNSPRP	-0.723
RRIRNRPPRLPRPRPRPQDSPRP	-0.238
